Article PMC5874296, “A CTP Synthase Undergoing Stage-Specific Spatial Expression Is Essential for the Survival of the Intracellular Parasite Toxoplasma gondii” (Frontiers in Cellular and Infection Microbiology, 2018)

What was measured:
TgCTPS (CTP synthase) = biological target: T1, TgCTPS (CTP synthase) (Toxoplasma gondii, UniProt B9Q379); experiment: pyruvate kinase/lactate dehydrogenase-coupled assay with recombinant enzyme; assay type: biochemical
T1 sequence (B9Q379 1-652): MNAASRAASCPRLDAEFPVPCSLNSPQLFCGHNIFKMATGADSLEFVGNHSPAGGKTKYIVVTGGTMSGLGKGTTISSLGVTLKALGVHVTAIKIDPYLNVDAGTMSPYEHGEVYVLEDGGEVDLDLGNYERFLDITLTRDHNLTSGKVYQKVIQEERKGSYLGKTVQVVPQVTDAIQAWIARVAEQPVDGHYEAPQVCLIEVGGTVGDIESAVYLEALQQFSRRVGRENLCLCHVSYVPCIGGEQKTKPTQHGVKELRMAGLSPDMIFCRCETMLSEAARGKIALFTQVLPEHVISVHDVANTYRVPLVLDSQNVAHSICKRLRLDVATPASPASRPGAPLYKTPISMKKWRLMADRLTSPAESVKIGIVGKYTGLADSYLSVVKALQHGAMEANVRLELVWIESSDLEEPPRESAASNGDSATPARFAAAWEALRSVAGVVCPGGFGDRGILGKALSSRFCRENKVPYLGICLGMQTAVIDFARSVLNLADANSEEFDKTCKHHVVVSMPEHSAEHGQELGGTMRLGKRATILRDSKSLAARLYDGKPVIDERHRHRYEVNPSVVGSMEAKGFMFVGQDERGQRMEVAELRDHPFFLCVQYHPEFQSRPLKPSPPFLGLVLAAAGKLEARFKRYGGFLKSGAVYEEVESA

[1] = substrate: NC(=O)CC[C@H](N)C(=O)O; experiment: steady-state kinetics, coupled enzyme assay (Km); assay type: biochemical, Toxoplasma gondii; conditions: Mg2+ negative cooperativity in the binding of L-glutamine to the active site; 37.0 °C
[2] = substrate: Nc1ncnc2c1ncn2[C@@H]1O[C@H](COP(=O)(O)OP(=O)(O)OP(=O)(O)O)[C@@H](O)[C@H]1O; experiment: steady-state kinetics, coupled enzyme assay (Km); assay type: biochemical, Toxoplasma gondii; conditions: Mg2+; 37.0 °C
purified protein = substrate: O=c1ccn([C@@H]2O[C@H](COP(=O)(O)OP(=O)(O)OP(=O)(O)O)[C@@H](O)[C@H]2O)c(=O)[nH]1; experiment: purified protein; assay type: biochemical, Toxoplasma gondii; conditions: Mg2+

Molecule | IC50 (TgCTPS (CTP synthase)) | Km [1] | kcat [1] | kcat/Km [1] | Km [2] | kcat [2] | kcat/Km [2] | K0.5 (purified protein)
[N-]=[N+]=CC(=O)CC[C@H](N)C(=O)O [DON, 6-diazo-5-oxo-L-norleucine] | ~0.04 µM |  |  |  |  |  |  | 
TgCTPS (CTP synthase) (Toxoplasma gondii) (protein) MNAASRAASCPRLDAEFPVPCSLNSPQLFCGHNIFKMATGADSLEFVGNHSPAGGKTKYIVVTGGTMSGLGKGTTISSLGVTLKALGVHVTAIKIDPYLNVDAGTMSPYEHGEVYVLEDGGEVDLDLGNYERFLDITLTRDHNLTSGKVYQKVIQEERKGSYLGKTVQVVPQVTDAIQAWIARVAEQPVDGHYEAPQVCLIEVGGTVGDIESAVYLEALQQFSRRVGRENLCLCHVSYVPCIGGEQKTKPTQHGVKELRMAGLSPDMIFCRCETMLSEAARGKIALFTQVLPEHVISVHDVANTYRVPLVLDSQNVAHSICKRLRLDVATPASPASRPGAPLYKTPISMKKWRLMADRLTSPAESVKIGIVGKYTGLADSYLSVVKALQHGAMEANVRLELVWIESSDLEEPPRESAASNGDSATPARFAAAWEALRSVAGVVCPGGFGDRGILGKALSSRFCRENKVPYLGICLGMQTAVIDFARSVLNLADANSEEFDKTCKHHVVVSMPEHSAEHGQELGGTMRLGKRATILRDSKSLAARLYDGKPVIDERHRHRYEVNPSVVGSMEAKGFMFVGQDERGQRMEVAELRDHPFFLCVQYHPEFQSRPLKPSPPFLGLVLAAAGKLEARFKRYGGFLKSGAVYEEVESA |  | 260 ± 40 µM | 29.6 s⁻¹ | 114000 M⁻¹ s⁻¹ | 540 ± 50 µM | 36 s⁻¹ | 66700 M⁻¹ s⁻¹ | 0.47 ± 0.03 mM
